The target in test [1] is Aβ42 fibers, P05067. The test is described as follows: ELISA, amyloid coated at 1 µg/well, His-tagged ZR detected with HRP-linked antibody.
Test [2] concerns the target Aβ42 monomers, P05067. The test is described as above.
For test [3], the target named is Aβ42 oligomers, P05067. The test is described as above.
For test [4], the target named is T1, amylin fibers, P10997.
T1 chain: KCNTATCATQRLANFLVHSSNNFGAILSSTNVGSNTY
Described as above.

The target in test [5] is T2, amylin monomers, P10997.
T2 chain: T1 chain
Described as above.

Test [6] deals with T3, amylin oligomers, P10997.
T3 chain: T1 chain
The description is as above.

For test [7], the target named is Aβ42 (UniProt P05067). The test can be described thus: cell-based or functional assay.
Aβ42, sequence (P05067 672-713 limits assumed): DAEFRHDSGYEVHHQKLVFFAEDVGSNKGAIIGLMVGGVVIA
For test [8], the target named is amylin (UniProt P10997). The test is described as follows: cell-based or functional assay.
Test [9] concerns the target insulin. The test can be described thus: cell-based or functional assay.
The target in test [10] is lysozyme. The test can be described thus: cell-based or functional assay.

Aβ42 fibers, P05067, sequence (P05067 672-713 limits assumed): as above
Aβ42 oligomers, P05067, sequence (P05067 672-713 limits assumed): as above
Aβ42 monomers, P05067, sequence (P05067 672-713 limits assumed): as above

B1: histidine-tagged ZR polypeptide (SEQ ID NO. 2) (peptide)
peptide: SFFNNKR
modifications: not checked
With B1, the OD450 was 0.35 in test [1]; 0.34 in test [2]; 0.38 in test [3]; 0.18 in [4]; 0.41 in test [5]; 0.5 in test [6].

B2: ZR polypeptide (SEQ ID NO. 2) (peptide)
peptide: SFFNNKR
Take B2: in test [7], the ThT fluorescence value, Aβ42 with ZR at a molar ratio of 1:1 (Aβ42 alone: 26500) worked out at 22000; the ThT fluorescence value, Aβ42 with ZR at a molar ratio of 1:10 (Aβ42 alone: 26500) is 17000; the cell activity of SH-SY5Y cells (MTT), Aβ:ZR=1:0.5 group (Aβ42 group: 71%) amounted to 80%; the cell activity of SH-SY5Y cells (MTT), Aβ:ZR=1:1 group (Aβ42 group: 71%) amounted to 82%. In test [7], the cytotoxicity inhibited, molar ratio 1:1 stood at 37.8%. In [8], the ThT fluorescence value, amylin with ZR at a molar ratio of 1:1 (amylin alone: 38000) came out at 41000; the ThT fluorescence value, amylin with ZR at a molar ratio of 1:10 (amylin alone: 38000) amounted to 43000; the cell activity of SH-SY5Y cells (MTT), Amylin:ZR=1:1 group (Amylin group: 61%) is 70%; the cell activity of SH-SY5Y cells (MTT), Amylin:ZR=1:10 group (Amylin group: 61%) amounted to 75%. The cytotoxicity inhibited, molar ratio 1:10 in [8] was 45.4%. Also, in [9], the ThT fluorescence value, insulin with ZR at a molar ratio of 1:1 (insulin alone: 305000) amounted to 305000; the ThT fluorescence value, insulin with ZR at a molar ratio of 1:10 (insulin alone: 305000) is 310000; the cell activity of SH-SY5Y cells (MTT), insulin:ZR=1:1 group (insulin group: 77%) was 92%; the cell activity of SH-SY5Y cells (MTT), insulin:ZR=1:5 group (insulin group: 77%) was 102%. In [9], the cytotoxicity inhibited, molar ratio 1:5 was 89.8%. In addition, in [10], the ThT fluorescence value, lysozyme with ZR at a molar ratio of 1:1 (lysozyme alone: 310000) was 220000; the ThT fluorescence value, lysozyme with ZR at a molar ratio of 1:10 (lysozyme alone: 310000) worked out at 170000; the cell activity of SH-SY5Y cells (MTT), lysozyme:ZR=1:1 group (lysozyme group: 55%) was determined as 85%; the cell activity of SH-SY5Y cells (MTT), lysozyme:ZR=1:10 group (lysozyme group: 55%) worked out at 93%. Besides, the cytotoxicity inhibited, molar ratio 1:10 in test [10] is 118%.

The values above are taken from patent US20190330271A1.
